Results from paper PMC3812244, “Organophosphate and Pyrethroid Hydrolase Activities of Mutant Esterases from the Cotton Bollworm Helicoverpa armigera” (PLoS ONE, 2013).

Legend:
Assay in all cases: spectrophotometric esterase kinetics, active-site titrated enzyme
Settings in all cases: wild-type values collected contemporaneously, also reported in Teese et al. [32]
CC(=O)Oc1cccc2ccccc12 = format: biochemical, Lucilia cuprina
Excerpt: spectrophotometric esterase kinetics, active-site titrated enzyme on E3

001f (CCE-001f) = test system: T1, 001f (CCE-001f); format: biochemical, Helicoverpa armigera
T1 construct: gene CCE001f; untagged, baculovirus expressed in Sf9 cells; titrated active sites
Excerpt: spectrophotometric esterase kinetics, active-site titrated enzyme on 001f (CCE-001f)

001b (CCE-001b) = test system: T2, 001b (CCE-001b); format: biochemical, Helicoverpa armigera
T2 construct: gene CCE001b; untagged, baculovirus expressed in Sf9 cells; titrated active sites
Excerpt: spectrophotometric esterase kinetics, active-site titrated enzyme on 001b (CCE-001b)

| Compound | Km (CC(=O)Oc1cccc2ccccc12) | kcat (CC(=O)Oc1cccc2ccccc12) | Km (001f (CCE-001f)) | Km (001b (CCE-001b)) |
| --- | --- | --- | --- | --- |
| E3 (Lucilia cuprina) | 88 (10) µM | 1399 (70) sec^-1 |  |  |
| CC(=O)Oc1cccc2ccccc12 [1-naphthyl acetate] |  |  | 4 µM | 199 µM |
